Results from patent US20070243569.

Experiments:
[1] = test system: T1, non-phosphorylated pKID-PKC
T1 sequence: DKNADGWIDAASLK

[2] = test system: T2, non-phosphorylated pKID-Erk
T2 sequence: DKNADGWIDAASPA

[3] = test system: T3, non-phosphorylated pKID-PKA
T3 sequence: DKNADGWIDRASLA

## Protein Kinase A (PKA)
[1]
  extent of peptide phosphorylation by HPLC: under identical conditions pKID-Erk (FIG. 9) and pKID-PKC (FIG. 10) showed no evidence of phosphorylation
[2]
  extent of peptide phosphorylation by HPLC: under identical conditions pKID-Erk (FIG. 9) and pKID-PKC (FIG. 10) showed no evidence of phosphorylation
[3]
  extent of peptide phosphorylation by HPLC (conversion to phosphorylated peptide): pKID-PKA was enzymatically phosphorylated to >95% conversion in 12 hrs by PKA
  phosphorylation in HeLa nuclear extract with added PKA after 3 h, conversion by HPLC: Phosphorylation proceeded at 75% conversion as measured by HPLC
